Measurements published in patent US20240116985A1 (published 2024).
Starred links: 1 amine or outer side, 2 acyl side, 3 side chain; linkers in the order of their positions; H or OH if unused. Positions of bridges follow the written chain, without caps; N, C: chain ends. Non-standard residues stand in square brackets, D forms with d. Primed or numbered codes have the meaning given here. B5(16) = 2-amino-2-(pent-4-en-1-yl)hept-6-enoic acid = 2,2-bis(4-pentenyl)glycine (stitching residue), C=CCCCC(CCCC=C)(N[*:1])C(=O)[*:2]; B5(4) = 2,2-bis(4-pentenyl)glycine = 2-amino-2-(pent-4-en-1-yl)hept-6-enoic acid (stitching residue), C=CCCCC(CCCC=C)(N[*:1])C(=O)[*:2]; B5(9) = 2-amino-2-(pent-4-en-1-yl)hept-6-enoic acid (2,2-bis(4-pentenyl)glycine), C=CCCCC(CCCC=C)(N[*:1])C(=O)[*:2]; B5(14) = 2-amino-2-(pent-4-en-1-yl)hept-6-enoic acid (bis-pentenylglycine), C=CCCCC(CCCC=C)(N[*:1])C(=O)[*:2]; WCHO = 1-formyl-L-tryptophan, O=Cn1cc(C[C@H](N[*:1])C(=O)[*:2])c2ccccc21; S(OMe) = O-methyl-L-serine, COC[C@H](N[*:1])C(=O)[*:2]; Phe(2-CONH2) = NC(=O)c1ccccc1C[C@H](N)C(=O)O; Ala(2-furyl) = N[C@@H](Cc1ccco1)C(=O)O; His(τ-Me) = Cn1cnc(C[C@H](N)C(=O)O)c1; Bta = N[C@@H](Cc1csc2ccccc12)C(=O)O; αAllylPro = C=CC[C@@]1(C(=O)O)CCCN1; S8 = C=CCCCCCC[C@](C)(N)C(=O)O

T1: full-length beta-Catenin (Uniprot ID P35222) (Homo sapiens (Human), UniProt P35222 1-781)
T1 construct: also called bCat; B-Catenin
T1 sequence: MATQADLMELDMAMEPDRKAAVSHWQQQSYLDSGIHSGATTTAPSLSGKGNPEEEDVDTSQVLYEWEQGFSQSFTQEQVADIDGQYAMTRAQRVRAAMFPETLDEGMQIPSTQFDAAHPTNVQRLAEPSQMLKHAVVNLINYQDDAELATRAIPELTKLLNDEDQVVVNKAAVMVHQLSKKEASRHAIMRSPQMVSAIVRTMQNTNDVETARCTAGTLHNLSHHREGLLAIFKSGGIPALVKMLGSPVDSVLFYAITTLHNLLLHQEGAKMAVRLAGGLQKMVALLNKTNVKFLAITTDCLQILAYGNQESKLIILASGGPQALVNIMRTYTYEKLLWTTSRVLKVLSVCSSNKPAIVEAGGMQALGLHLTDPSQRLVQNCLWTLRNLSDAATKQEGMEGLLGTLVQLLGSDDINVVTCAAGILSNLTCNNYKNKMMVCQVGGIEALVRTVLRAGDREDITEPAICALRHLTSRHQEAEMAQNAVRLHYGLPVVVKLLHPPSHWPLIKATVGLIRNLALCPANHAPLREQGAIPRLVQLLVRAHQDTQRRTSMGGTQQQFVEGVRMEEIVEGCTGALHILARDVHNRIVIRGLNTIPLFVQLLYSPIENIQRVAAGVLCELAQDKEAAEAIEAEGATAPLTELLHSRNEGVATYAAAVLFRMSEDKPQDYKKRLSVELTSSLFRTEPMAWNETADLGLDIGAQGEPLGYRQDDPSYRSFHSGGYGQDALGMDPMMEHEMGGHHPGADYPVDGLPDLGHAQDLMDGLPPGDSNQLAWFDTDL

B1: I-337 (peptide)
peptide: XDAXDDAAFVXFXQ
modifications: not fully specified; N-terminal Ac; PL3 at 1; B5 at 4; S8 at 11; 4CBMF at 12; BztA at 13; C-terminal NH2; stapled PL3-B5 and B5-S8 (olefin metathesis)
notes: Stapled peptide composition; also called Ac-PL3-Asp-Ala-B5-Asp-Asp-Ala-Ala-Phe-Val-S8-4CBMF-BztA-Gln-NH2
B2: I-330 (peptide)
peptide: Ac-[αAllylPro]DA[B5(4)]DDAA[His(τ-Me)]V[S8]FWQ-NH2
modifications: staple 1-4, 4-11
notes: Stapled peptide composition; also called Ac-PL3-Asp-Ala-B5-Asp-Asp-Ala-Ala-1meH-Val-S8-Phe-Trp-Gln-NH2
B3: I-348 (peptide)
peptide: XAAXDDAAFVXFWQ
modifications: not fully specified; N-terminal Ac; PL3 at 1; B5 at 4; S8 at 11; C-terminal NH2; stapled PL3-B5 and B5-S8 (olefin metathesis)
notes: Stapled peptide composition; also called Ac-PL3-Ala-Ala-B5-Asp-Asp-Ala-Ala-Phe-Val-S8-Phe-Trp-Gln-NH2
B4: I-350 (peptide)
peptide: XDAXADAAFVXFWQ
modifications: not fully specified; N-terminal Ac; PL3 at 1; B5 at 4; S8 at 11; C-terminal NH2; stapled PL3-B5 and B5-S8 (olefin metathesis)
notes: Stapled peptide composition; also called Ac-PL3-Asp-Ala-B5-Ala-Asp-Ala-Ala-Phe-Val-S8-Phe-Trp-Gln-NH2
B5: I-352 (peptide)
peptide: Ac-[αAllylPro]DA[B5(16)]DAAAFV[S8]FWQ-NH2
modifications: staple 1-4, 4-11
notes: Stapled peptide composition; also called Ac-PL3-Asp-Ala-B5-Asp-Ala-Ala-Ala-Phe-Val-S8-Phe-Trp-Gln-NH2
B6: I-338 (peptide)
peptide: XDAXDDAAFVXFXQ
modifications: not fully specified; N-terminal Ac; PL3 at 1; B5 at 4; S8 at 11; 4CBMF at 12; BztA at 13; C-terminal NH2; stapled PL3-B5 and B5-S8 (olefin metathesis)
notes: as for B1
B7: I-332 (peptide)
peptide: Ac-[αAllylPro]DA[B5(14)]DDAAHV[S8]FWQ-NH2
modifications: staple 1-4, 4-11; not fully specified (residue 9)
notes: Stapled peptide composition; also called Ac-PL3-Asp-Ala-B5-Asp-Asp-Ala-Ala-3meH-Val-S8-Phe-Trp-Gln-NH2
B8: I-351 (peptide)
peptide: XDAXADAAFVXFWQ
modifications: not fully specified; N-terminal Ac; PL3 at 1; B5 at 4; S8 at 11; C-terminal NH2; stapled PL3-B5 and B5-S8 (olefin metathesis)
notes: as for B4
B9: I-331 (peptide)
peptide: Ac-[αAllylPro]DA[B5(14)]DDAAHV[S8]FWQ-NH2
modifications: staple 1-4, 4-11; not fully specified (residue 9)
notes: as for B7
B10: I-327 (peptide)
peptide: Ac-[αAllylPro]DA[B5(4)]DDAA[Ala(2-furyl)]V[S8]FWQ-NH2
modifications: staple 1-4, 4-11; not fully specified; printed as Ac-PL3-Asp-Ala-B5-Asp-Asp-Ala-Ala-2FurA-Val-S8-Phe-Trp-Gln-NH2
notes: Stapled peptide composition; also called Ac-PL3-Asp-Ala-B5-Asp-Asp-Ala-Ala-2FurA-Val-S8-Phe-Trp-Gln-NH2
B11: I-336 (peptide)
peptide: Ac-[αAllylPro]DA[B5(4)]DDAAFV[S8][Phe(2-CONH2)][Bta]Q-NH2
modifications: staple 1-4, 4-11
notes: Stapled peptide composition; also called Ac-PL3-Asp-Ala-B5-Asp-Asp-Ala-Ala-Phe-Val-S8-2CBMF-BztA-Gln-NH2
B12: I-341 (peptide)
peptide: Ac-[αAllylPro]DA[B5(9)]DDAAFV[S8]Y[Bta]Q-NH2
modifications: staple 1-4, 4-11
notes: Stapled peptide composition; also called Ac-PL3-Asp-Ala-B5-Asp-Asp-Ala-Ala-Phe-Val-S8-Tyr-BztA-Gln-NH2
B13: I-346 (peptide)
peptide: XDQXDDAAFVXFXQ
modifications: not fully specified; N-terminal Ac; PL3 at 1; B5 at 4; S8 at 11; BztA at 13; C-terminal NH2; stapled PL3-B5 and B5-S8 (olefin metathesis)
notes: Stapled peptide composition; also called Ac-PL3-Asp-Gln-B5-Asp-Asp-Ala-Ala-Phe-Val-S8-Phe-BztA-Gln-NH2
B14: I-345 (peptide)
peptide: Ac-[αAllylPro]D[S(OMe)][B5(9)]DDAAFV[S8]F[Bta]Q-NH2
modifications: staple 1-4, 4-11
notes: Stapled peptide composition; also called Ac-PL3-Asp-S(OMe)-B5-Asp-Asp-Ala-Ala-Phe-Val-S8-Phe-BztA-Gln-NH2
B15: I-347 (peptide)
peptide: XDQXDDAAFVXFXQ
modifications: not fully specified; N-terminal Ac; PL3 at 1; B5 at 4; S8 at 11; BztA at 13; C-terminal NH2; stapled PL3-B5 and B5-S8 (olefin metathesis)
notes: as for B13
B16: I-342 (peptide)
peptide: Ac-[αAllylPro]DA[B5(9)]DDAAFT[S8]F[Bta]Q-NH2
modifications: staple 1-4, 4-11
notes: Stapled peptide composition; also called Ac-PL3-Asp-Ala-B5-Asp-Asp-Ala-Ala-Phe-Thr-S8-Phe-BztA-Gln-NH2
B17: I-329 (peptide)
peptide: Ac-[αAllylPro]DA[B5(4)]DDAA[His(τ-Me)]V[S8]FWQ-NH2
modifications: staple 1-4, 4-11; not fully specified; printed as Ac-PL3-Asp-Ala-B5-Asp-Asp-Ala-Ala-1meH-Val-S8-Phe-Trp-Gln-NH2
notes: as for B2
B18: I-353 (peptide)
peptide: XDAXDDAAAVXFWQ
modifications: not fully specified; N-terminal Ac; PL3 at 1; B5 at 4; S8 at 11; C-terminal NH2; stapled PL3-B5 and B5-S8 (olefin metathesis)
notes: Stapled peptide composition; also called Ac-PL3-Asp-Ala-B5-Asp-Asp-Ala-Ala-Ala-Val-S8-Phe-Trp-Gln-NH2
B19: I-333 (peptide)
peptide: Ac-[αAllylPro]DA[B5(4)]DDAAFS[S8]F[WCHO]S-NH2
modifications: staple 1-4, 4-11
notes: Stapled peptide composition; also called Ac-PL3-Asp-Ala-B5-Asp-Asp-Ala-Ala-Phe-Ser-S8-Phe-WCHO-Ser-NH2
B20: I-328 (peptide)
peptide: Ac-[αAllylPro]DA[B5(4)]DDAA[Ala(2-furyl)]V[S8]FWQ-NH2
modifications: staple 1-4, 4-11; not fully specified; printed as Ac-PL3-Asp-Ala-B5-Asp-Asp-Ala-Ala-2FurA-Val-S8-Phe-Trp-Gln-NH2
notes: as for B10
B21: I-349 (peptide)
peptide: XAAXDDAAFVXFWQ
modifications: not fully specified; N-terminal Ac; PL3 at 1; B5 at 4; S8 at 11; C-terminal NH2; stapled PL3-B5 and B5-S8 (olefin metathesis)
notes: as for B3

Target: T1, full-length beta-Catenin (Uniprot ID …)
Experiment: fluorescence polarization competition vs 5FAM-TCF4(10-53) on full-length beta-catenin
Protocol: The plate was incubated protected from light for 60 minutes at 20° C. prior to read. Reads were performed on a CLARIOstar plate reader (BMG Labtech) in duplicate, and data were fitted to a 1:1 binding model with hill slope using an in-house script. All provided concentrations are final concentrations.

Binder	IC50 [µM]
B1	5
B2	5
B3	5
B4	5
B5	5
B6	5
B7	5
B8	5
B9	5
B10	4.72
B11	0.153
B12	2
B13	0.18
B14	0.134
B15	0.121
B16	0.0585
B17	5
B18	5
B19	2.76
B20	1.91
B21	5
